The source of these data is publication PMC7043024.

In this experiment the target is LSD1 (lysine specific demethylase 1), full length (UniProt O60341).

For the substance H3K4me 1-21 peptide, the K (M,post) (post-equilibrium apparent Michaelis-Menten constant) of the demethylation of K4meK9 by 200 nM CoREST ternary complex, APO, real-time 1H NMR assay came to 2.3 µM and the K (M,post) (post-equilibrium apparent Michaelis-Menten constant) of the demethylation of K4meK9 by the CoREST ternary complex pre-equilibrated with 5 μM MS275 HDAC inhibitor, real-time 1H NMR assay stood at 9.2 µM.
